Results reported in the DeepSol protein solubility set.

Assay: soluble on expression in E. coli; label from the status in PepcDB or PDB records

**Q.** Which “soluble on expression in E. coli” value does the source give for “SSEAKKGHVLFFPYPLQGHINPMIQLAKRLSKKGITSTLIIASKDHREPYTSDDYSITVHTIHDGFFPHEHPHAKFVDLDRFHNSTSRSLTDFISSAKLSDNPPKALIYDPFMPFALDIAKDLDLYVVAYFTQPWLASLVYYHINEGTYDVPVDRHENPTLASFPGFPLLSQDDLPSFACEKGSYPLLHEFVVRQFSNLLQADCILCNTFDQLEPKVVKWMNDQWPVKNIGPVVPSKFLDNRLPEDKDYELENSKTEPDESVLKWLGNRPAKSVVYVAFGTLVALSEKQMKEIAMAISQTGYHFLWSVRESERSKLPSGFIEEAEEKDSGLVAKWVPQLEVLAHESIGCFVSHCGWNSTLEALCLGVPMVGVPQWTDQPTNAKFIEDVWKIGVRVRTDGEGLSSKEEIARCIVEVMEGERGKEIRKNVEKLKVLAREAISEGGSSDKKIDEFVALLT” here?
**A.** soluble

**Q.** With “MGSDKIHHHHHHSCLDDDDSSSDSLVISTINLISPDSKDFYFTLDDGKTMFPSNGNGWISDKNKDGQRAFVIFKELEEPVKGYDYNIQVREIKEILTKEIVTMGEGENTEEKIGDDKINSTYMWITQDKKYLTIEFQYYGTHSEDKKHFLNLVINNKEAEPAADDANDEYIDLEFRHNDEGDTADRLGEGYISFKLDKIQDQMKGKKGLRIRVKTLYNGEKFYEVKFPSSN” as the sequence, how does the “soluble on expression in E. coli” value read?
**A.** not soluble

**Q.** With “MLRFTNCSCKTFVKSSYKLNIRRMNSSFRTETDAFGEIHVPADKYWGAQTQRSFQNFKIGGARERMPLPLVHAFGVLKKSAAIVNESLGGLDPKISKAIQQAADEVASGKLDDHFPLVVFQTGSGTQSNMNANEVISNRAIEILGGKIGSKQVHPNNHCNQSQSSNDTFPTVMHIAASLQIQNELIPELTNLKNALEAKSKEFDHIVKIGRTHLQDATPLTLGQEFSGYVQQVENGIQRVAHSLKTLSFLAQGGTAVGTGLNTKPGFDVKIAEQISKETGLKFQTAPNRFEALAAHDAIVECSGALNTLACSLFKIAQDIRYLGSGPRCGYHELMLPENEPGSSIMPGKVNPTQNEALTQVCVQVMGNNAAITFAGSQGQFELNVFKPVMIANLLNSIRLITDAAYSFRVHCVEGIKANEPRIHELLTKSLMLVTALNPKIGYDAASKVAKNAHKKGITLKESALELGVLTEKEFDEWVVPEHMLGPK” as the sequence, how does the “soluble on expression in E. coli” value read?
**A.** soluble

**Q.** Which “soluble on expression in E. coli” value does the source give for “MHHHHHHSSGVDLGTENLYFQSMTTSLEALPTGTVLTDKSGRQWKLKSFQTRDNQGILYEAAPTSTLTCDSGPQKQKFSLKLDAKDGRLFNEQNFFQRAAKPLQVNKWKKLYSTPLLAIPTCMGFGVHQDKYRFLVLPSLGRSLQSALDVSPKHVLSERSVLQVACRLLDALEFLHENEYVHGNVTAENIFVDPEDQSQVTLAGYGFAFRYCPSGKHVAYVEGSRSPHEGDLEFISMDLHKGCGPSRRSDLQSLGYCMLKWLYGFLPWTNCLPNTEDIMKQKQKFVDKPGPFVGPCGHWIRPSETLQKYLKVVMALTYEEKPPYAMLRNNLEALLQDLRVSPYDPIGLPMVP” here?
**A.** soluble

**Q.** With “MSLNDTALTITAVRAVLLSHRYQPGEELTWVGGTIWSWDAALVEVTLSDGTTGIGEAGAGIMAAAAVPGIVDAFRPYVLDHEFGHPLEVADHLRAYTAFWARGGMLNGVAGAIETAAVDAVAKRLGVPAYEVLGGLKRDWIESYASGGLGTTFGEVSDWAAAQIEAGFGTVKFRAMTDPDTTIKLLDHVTALLPEGIQFVIDAVQACASDPWPVDEAIRVGQKAAELGARWYEEPCQADDVAGYAAVRAAVNVPISGVESNGTVRDFAQLLDAKALDVAQPDVTFVGGPKAFAQVAELAHATGVKTVPHVWGSGVTFAANLHTVLANPYVELFEYCTLPNPLRDAMRVEEVDFRDGGIVAPTAPGLGIQLTPEIEAQFPFSPGGGHVIREGHHHHHH” as the sequence, how does the “soluble on expression in E. coli” value read?
**A.** soluble

**Q.** For “KQSKLTLMSESLRNDGRIWVPKKLEDAKALQAGTKKPTDIPDADRDFYLERRYPAFGNLVPRDVASRAAKERCDAGFGVNNTGLAVFLDFKYAIDRLGEDVVRARYGNLFDMYEEITDENPYKTPMMIFPA”, which “soluble on expression in E. coli” value is on record?
**A.** soluble

**Q.** For “DIVMTQSPLSLPVTPGEPASISCRSSQSIVHSNGHTYLEWYLQKPGQSPRLLIYQVSTRFSGVPDRFSGSGSGTDFTLKISRVEAEDVGVYYCFQASLVPLTFGQGTKLEIKRTVAAPSVFIFPPSDEQLKSGTASVVCLLNNFYPREAKVQWKVDNALQSGNSQESVTEQDSKDSTYSLSSTLTLSKADYEKHKVYACEVTHQGLSSPVTKSFNRGECAAADYKDDDD”, which “soluble on expression in E. coli” value is on record?
**A.** soluble

**Q.** For “TKTEALTAEEAAKQYTNSLVEKALKAEKVYATYTQEQVDKIVAAMALAGSEASLQLAKEAHDETGRGVVEDKDTKNHFATEYVYERIKNEKTVGIIGEDKVAGSIEIAAPLGVLAGIVPTTNPTSTTMFKILVALKTRNAIVFAFHPAAQKCSAHAAQILYDAAVKAGAPENIVQWIETPSIANTGALISNKGIASILATGGPGMVNAALKSGNPSMGVGAGNGAVYVDATANLERAVEDLLLSKRFDNGMICATE”, which “soluble on expression in E. coli” value is on record?
**A.** not soluble

**Q.** Which “soluble on expression in E. coli” value does the source give for “MVKKSEFERGDIVLVGFDPASGHEQQGAGRPALVLSVQAFNQLGMTLVAPITQGGNFARYAGFSVPLHCEEGDVHGVVLVNQVRMMDLHARLAKRIGLAADEVVEEALLRLQAVVE” here?
**A.** soluble

**Q.** Which “soluble on expression in E. coli” value does the source give for “STDDKDVLRDVWFGRIPTCFTLYQDEITEREAEPYYLLLPRVSYLTLVTDKVKKHFQKVMRQEDVSEIWFEYEGTPLKWHYPIGLLFDLLASSSALPWNITVHFKSFPEKDLLHCPCKDAVEAHFMSCVKEADALKHKSQVINEMQRKDHKQLWMGLQNDLTSFGPSTGNSWNTLQKKMDFVISLLEYIRPQLNGLSFRSCSVLWPQMDSCIPLEIS” here?
**A.** soluble

**Q.** Which “soluble on expression in E. coli” value does the source give for “MGSDKIHHHHHHMSRDLPPLNALRAFESTARFGSVSQAAEQLSVTHGAVSRQLKVLEEHLGVSLFSKDGRGLKLTDAGIRLRDASADAFDRLRSVCAELSKGSVDAPFVLGCSGSLLARWFIPRLSRLNAELPDLRLHLSAGEGDLDPRRPGLDALLVFAEPPWPADMQVFELASERIGPVLSPRFARFESMRDAPANALLEESLLQTTSRPQAWPSWAQQNGIDPDALRYGQGFEHLYYLLEAAVAGLGIAIAPEPLVIDDLKAGRLAAPWGFSETPAQLALWVPRRAADGRARQLAQWLKNELKRSGDPIRN” here?
**A.** not soluble

**Q.** Which “soluble on expression in E. coli” value does the source give for “PNLTEISKKITESNAVVLAVKEVETLLASIDELATKAIGKKIGNNGLEANQSKNTSLLSGAYAISDLIAEKLNVLKNEELKEKIDTAKQCSTEFTNKLKSEHAVLGLDNLTDDNAQRAILKKHANKDKGAAELEKLFKAVENLSKAAQDTLKNAVKELTSPIVA” here?
**A.** soluble

**Q.** With “PAQDNSRFVIRDRNWHPKALTPDYKTSIARSPRQALVSIPQSISETTGPNFSHLGFGAHDHDLLLNFNNGGLPIGERIIVAGRVVDQYGKPVPNTLVEMWQANAGGRHRHKNDRYLAPLDPNFGGVGRCLTDSDGYYSFRTIKPGPYPWRNGPNDWRPAHIHFGISGPSIATKLITQLYFEGDPLIPMCPIVKSIANPEAVQQLIAKLDMNNANPMDCLAYRFDIVLRGQRKTHFENC” as the sequence, how does the “soluble on expression in E. coli” value read?
**A.** soluble

**Q.** For “MGSDKIHHHHHHRGDKPVVWNHQDRRFEVIQQKKQRQRLDSYRRIVIDTTAPVTIRQGDTRQVTLHNFSSANNRLRARVSQGTLTVTGGSTTMNYVLGFGSDGGGINFSSNGDKRGVVITVPKTQRLDSIISKREGGELSLKKMTVKQISVKSTDDVSFNDVRVTKTLAVDTTAGDISGKQVKADRVDLTAEEGDVSLTQSHFKAVNNRVISGDGDVRLATTQLGGGHVVASDGDIQLHDNRLMGTLKATATDGDISARIAPAAGAKVTTTDSDDEIHVVGHSRSSGYWLRRAASAQYRLSTDDGDITVTQ”, which “soluble on expression in E. coli” value is on record?
**A.** not soluble

**Q.** Which “soluble on expression in E. coli” value does the source give for “SFRRKLTALEYHNPTGFDCKDETEFRNFIVWLEDQKIRHYKIEDRGNLRNIPSSDWPKYFEKYLQDVNCPFSVQERQETVDWLLGLAVRFEYGDNVEKYRNCKPVTETNDVQKSADPLINLDSNNPDFKAGVLALANLLKIQRHDDYLVMLKAIKILVQERLTPDAIAKASQAKEGLPVTLDKHILGFDTGDATLNEAAQVLRLLHIEELRELQTKINEAIVAVQAIIADPKTDHRLGKVGR” here?
**A.** soluble

**Q.** With “PSVQVPQSTILYASDGSKLGETNYGEKRYWVPLKDMNPTIVKATVAIEDQNFYDHHGFDYKRMAGAALADLKAFAKVQGASTITQQYARNLYLEHDKTWKRKWNEAFYTIRLEQNYSKDEILEGYLNTIYYGHGAYGIEAASRLYFGKHAKNLTDAEAALLAGIPKGPSGY” as the sequence, how does the “soluble on expression in E. coli” value read?
**A.** not soluble

**Q.** For “PKPPIDLVVTETTATSVTLTWDSGNSEPVTYYGIQYRAAGTEGPFQEVDGVATTRYSIGGLSPFSEYAFRVLAVNSIGRGPPSEAVRARTGEQ”, which “soluble on expression in E. coli” value is on record?
**A.** soluble

**Q.** For “MGSDKIHHHHHHMILLSFDIEEFDVPKEHQVDISMEEQIKVSVEGTTRILDCLERNQVKATFFCTANFALHAPDIIKRIQEGGHEIASHGFYHWTFEVEDLKRSKDQLEEITGTKVYGYRQARMMPVSEKAVYEAGYIYNSSLNPTFIPGRYMRLSTPRTPFIKDRVMQMPASVTPLLRFPLFWLSCHNLPASLYRWLCKYTHRHDGYFVTYFHPWEFYPLNEHPEWKLPFIIRNHAGEGMEKRLDAFILYFRKKNVSFGRFIDYIKLNKDIMK”, which “soluble on expression in E. coli” value is on record?
**A.** not soluble

**Q.** For “MGSDKIHHHHHHMPVKLAQALANPLFPALDSALRSGRHIGLDELDNHAFLMDFQEYLEEFYARYNVELIRAPEGFFYLRPRSTTLIPRSVLSELDMMVGKILCYLYLSPERLANEGIFTQQELYDELLTLADEAKLLKLVNNRSTGSDVDRQKLQEKVRSSLNRLRRLGMVWFMGHDSSKFRITESVFRFGADVRAGDDPREAQRRLIRDGEAMPIENHLQLNDETEENQPDSGEEE”, which “soluble on expression in E. coli” value is on record?
**A.** not soluble

**Q.** For “MGSDKIHHHHHHMAYEQFAYVYDELMQDVPYPEWVAWVLEQVEPGKRIADIGCGTGTATLLLADHYEVTGVDLSEEMLEIAQEKAMETNRHVDFWVQDMRELELPEPVDAITILCDSLNYLQTEADVKQTFDSAARLLTDGGKLLFDVHSPYKMETLFNGKTYATHAEQSSYIWFADPGEEPLSVVHELTFFIEGEDGRYDRVDETHHQRTYPPEQYITWLREAGFRVCAVTGDFKSDAPTETAERIFFVAEKI”, which “soluble on expression in E. coli” value is on record?
**A.** not soluble

**Q.** For “MFILHRSMLPCGANQMDLIQENGQPRYGRFSQLPTAIGLDRYIYKSPYGKIEKGWRKKLKYKKFKFCSIQHQHYSIGLAIADIGWAGHGFFYVYDHAKHQVQEWNAIHAFARKTCVDEQPLFNQSYFYKSPFELDIQHANGVRYLRVTKYGEILLSARIFCAGTEPLSLCSPNGINGWTYTQKKTTLGVEGYFTTKQGEMIEFNETSLASLDDTCGFLRPETAWFWLSSSFWTDHGDRIGINLASGVNESFGNENCIWINGVLHSIADVLFERQDKNHWVIRSLDHKLELHVETGWRRYESINLRMVGSQFSQWQAKLTGKILLDENKTVVLNQEYALLEQHYAKW”, which “soluble on expression in E. coli” value is on record?
**A.** not soluble
